From PMC9410886

Biological target: mouse mammary tumor virus (MMTV) integrase (IN) (mouse mammary tumor virus (MMTV))
Experiment: cryo-EM structure; octameric MMTV STC intasome: IN assembled on branched DNA, purified on Superdex 200 in 25 mM Tris-HCl pH 7.4, 200 mM NaCl, 2 mM DTT, 25 uM ZnCl2, 10 mM CaCl2; C2 symmetry, 3.5 Å global resolution

In the case of “mouse mammary tumor virus (MMTV) integrase (IN) (enzyme)”, the stoichiometry N is reported as 8.
